B1: prolactin: rat prolactin (protein)
chain: LPVCSGGDCQTPLPELFDRVVMLSHYIHTLYTDMFIEFDKQYVQDREFIAKAINDCPTSSLATPEDKEQAQKVPPEVLLNLILSLVHSWNDPLFQLITGLGGIHEAPDAIISRAKEIEEQNKRLLEGIEKIISQAYPEAKGNEIYLVWSQLPSLQGVDEESKDLAFYNNIRCLRRDSHKVDNYLKFLRCQIVHKNNC
B2: myelin basic protein: bovine myelin basic protein, purchased from Sigma (protein)
chain: AAQKRPSQRSKYLASASTMDHARHGFLPRHRDTGILDSLGRFFGSDRGAPKRGSGKDGHHAARTTHYGSLPQKAQGHRPQDENPVVHFFKNIVTPRTPPPSQGKGRGLSLSRFSWGAEGQKPGFGYGGRASDYKSAHKGLKGHDAQGTLSKIFKLGGRDSRSGSPMARR

Tested on: γ-PAK
Sequence (Q29502 249-524 limits assumed): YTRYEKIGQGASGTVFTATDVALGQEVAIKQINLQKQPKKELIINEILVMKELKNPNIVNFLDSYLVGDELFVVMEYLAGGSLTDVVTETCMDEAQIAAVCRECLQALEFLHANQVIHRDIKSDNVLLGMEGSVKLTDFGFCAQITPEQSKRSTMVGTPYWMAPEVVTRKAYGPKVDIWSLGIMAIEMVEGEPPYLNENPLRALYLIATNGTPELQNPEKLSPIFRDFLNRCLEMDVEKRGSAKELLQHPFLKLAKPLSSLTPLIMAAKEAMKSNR
Assay: Phosphorylation of protein substrates by γ-PAK
Format: biochemical, rabbit
Conditions: for 32P incorporated: 2 μg protein substrate, 20 units active γ-PAK, 15 min at 30° C.; for rel rate: relative to histone 2B = 100
Protocol: D. Phosphorylation Assays. Phosphorylation of protein substrates was carried out in 35 μL reaction mixtures containing 20 mM Tris-HCl, pH 7.4, 10 mM MgCl2, 30 mM 2-mercaptoethanol, 0.2 mM ATP (specific activity =1000 cpm/pmol), 2 μg of protein substrate, and 20 units of active γ-PAK (an enzyme unit is defined as the amount of enzyme that incorporates 1 pmol of phosphate into histone IIAS/ min at 30°. Under these conditions, phosphate incorporation was linear and initial rates of phosphorylation were measured. After incubation at 30° C. for 15 min, reactions were terminated by the addition of 5 μL of 100 mM nonlabeled ATP and sample buffer for gel electrophoresis [Hathaway, G. M., et al., Methods Enzymol., 60:495-511 (1979)]. Reaction mixtures were subjected to SDS-PAGE on 15% polyacrylamide gels followed by autoradiography. Phosphorylation was quantified by excising the protein band and counting the incorporated ^32P in a liquid scintillation counter. The specific activity of γ-PAK was 400 pmol min^−1 μg^−1 as reported previously using 0.2 mM ATP and 1 mg/mL mixed histone as substrate [Rooney, R. D., et al., (1996), supra].
A number of proteins were examined as substrates, and their relative rates of phosphorylation were compared (Table 6).

Row | Molecule | 32P incorporated [pmol] | rel rate [%]
1 | B1 | 1.8 | 17
2 | B2 | 4.2 | 37
